Reference: US20080254027A1 (published 2008)

Target: T1, CD5-His-GST (human, UniProt P06127 25-372)
T1 sequence: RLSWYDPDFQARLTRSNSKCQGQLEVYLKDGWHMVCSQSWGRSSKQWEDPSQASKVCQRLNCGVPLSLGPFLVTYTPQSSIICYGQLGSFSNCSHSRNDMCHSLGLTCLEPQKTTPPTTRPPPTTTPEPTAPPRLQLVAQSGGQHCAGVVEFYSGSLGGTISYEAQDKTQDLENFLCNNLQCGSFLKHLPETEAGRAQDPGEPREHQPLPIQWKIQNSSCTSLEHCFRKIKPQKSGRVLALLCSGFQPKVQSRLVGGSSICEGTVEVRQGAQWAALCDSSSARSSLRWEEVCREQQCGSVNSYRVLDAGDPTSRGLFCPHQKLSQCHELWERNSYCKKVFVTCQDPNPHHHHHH
Test: Biacore

B1: 5D7_H0L0_IgG1_WT (antibody, V domains shown)
VH: QVTLKESGPGILKPSQTLSLTCSFSGFSLSTSGMGVGWIRQPSGKGLEWLAHIWWDDDVYYNPSLKNQLTISKDASRDQVFLKITNLDTADTATYYCVRRRATGTGFDYWGQGTTLTVSS
VL: NIVMTQSHKFMSTSVGDRVSIACKASQDVGTAVAWYQQKPGQSPKLLIYWTSTRHTGVPDRFTGSGSGTDFTLTITNVQSEDLADYFCHQYNSYNTFGSGTRLELKR
Q: With B1 as the binder, how does the Kd read?
A: ~1.5 nM
